Results: article PMC3817697, “Building a pseudo-atomic model of the anaphase-promoting complex” (Acta Crystallographica Section D: Biological Crystallography, 2013)

B1: Cdc16 (Cut9) subunit of recombinant S. pombe APC/C (natural protein, UniProt P41889 1-671, looked up)
chain: MVVKRTQTDSRMQSTPGNHNHPDAHANAAYMTPPSMGALNANNSNSQLSTLTISPMTYLANNTSTDGSFLKERNAQNTDSLSREDYLRLWRHDALMQQQYKCAAFVGEKVLDITGNPNDAFWLAQVYCCTGDYARAKCLLTKEDLYNRSSACRYLAAFCLVKLYDWQGALNLLGETNPFRKDEKNANKLLMQDGGIKLEASMCYLRGQVYTNLSNFDRAKECYKEALMVDAKCYEAFDQLVSNHLLTADEEWDLVLKLNYSTYSKEDAAFLRSLYMLKLNKTSHEDELRRAEDYLSSINGLEKSSDLLLCKADTLFVRSRFIDVLAITTKILEIDPYNLDVYPLHLASLHESGEKNKLYLISNDLVDRHPEKAVTWLAVGIYYLCVNKISEARRYFSKSSTMDPQFGPAWIGFAHSFAIEGEHDQAISAYTTAARLFQGTHLPYLFLGMQHMQLGNILLANEYLQSSYALFQYDPLLLNELGVVAFNKSDMQTAINHFQNALLLVKKTQSNEKPWAATWANLGHAYRKLKMYDAAIDALNQGLLLSTNDANVHTAIALVYLHKKIPGLAITHLHESLAISPNEIMASDLLKRALEENSLTSGFLNSKYVFEDEVSEYMQQSNLNTSDKSMSMEDQSGKVTESVNDRTQVLYADSRSEMMMDDIEGNVSEQR
notes: Cdc16 (S. pombe name Cut9; human Apc6), TPR subunit of the S. pombe anaphase-promoting complex; Subunit within the recombinant S. pombe APC/C used for cryo-EM; the insect-cell MultiBac system is described only for the budding-yeast APC/C; also called Apc6; source: recombinant S. pombe APC/C

How the values were obtained:
[1] = molecular target: B1; assay: cryo-EM structure; recombinant S. pombe APC/C, single-particle cryo-EM, about 12 Å, still being refined; atomic models of subunits docked into the density and refined as rigid bodies with URO; details: both partners purified
[2] = molecular target: the molecule itself; assay: as above

Row | Binder | binding result [1] | binding result [2]
1 | Cdc27 (Nuc2) subunit of recombinant S. pombe APC/C (natural protein, UniProt P10505 1-665, looked up, Cdc27 (S. pombe name Nuc2; human Apc3), TPR subunit of the S. pombe anaphase-promoting complex; Subunit within the recombinant S. pombe APC/C used for cryo-EM; also called Apc3; source: recombinant S. pombe APC/C) MTDRLKCLIWYCIDNQNYDNSIFYSERLHAIEDSNESLYLLAYSHFLNLDYNIVYDLLDRVISHVPCTYLFARTSLILGRYKQGISAVEACRSNWRSIQPNINDSISSRGHPDASCMLDVLGTMYKKAGFLKKATDCFVEAVSINPYNFSAFQNLTAIGVPLDANNVFVIPPYLTAMKGFEKSQTNATASVPEPSFLKKSKESSSSSNKFSVSESIANSYSNSSISAFTKWFDRVDASELPGSEKERHQSLKLQSQSQTSKNLLAFNDAQKADSNNRDTSLKSHFVEPRTQALRPGARLTYKLREARSSKRGESTPQSFREEDNNLMELLKLFGKGVYLLAQYKLREALNCFQSLPIEQQNTPFVLAKLGITYFELVDYEKSEEVFQKLRDLSPSRVKDMEVFSTALWHLQKSVPLSYLAHETLETNPYSPESWCILANCFSLQREHSQALKCINRAIQLDPTFEYAYTLQGHEHSANEEYEKSKTSFRKAIRVNVRHYNAWYGLGMVYLKTGRNDQADFHFQRAAEINPNNSVLITCIGMIYERCKDYKKALDFYDRACKLDEKSSLARFKKAKVLILLHDHDKALVELEQLKAIAPDEANVHFLLGKIFKQMRKKNLALKHFTIAWNLDGKATHIIKESIENLDIPEENLLTETGEIYRNLET | binds | binds
2 | Cdc23 (Cut23) subunit of recombinant S. pombe APC/C (natural protein, UniProt O94556 1-565, looked up, Cdc23 (S. pombe name Cut23; human Apc8), TPR subunit of the S. pombe anaphase-promoting complex; Subunit within the recombinant S. pombe APC/C used for cryo-EM; also called Apc8; source: recombinant S. pombe APC/C) MTVSLNTMMGVDGLEDQEQLREIRNCLLKCISECSERGLVYAVRWAAEMLNGMNPIEMEHIPFSSTPTGEFDLDPDMANEKLLEVEEKNIYLLAKSYFDCKEFERAAYTLQNCKSSKSIFLRLYSKYLAGEKKSEEENETLLNTNLTLSSTNREFYYISEVLESLHYQGNKDPYLLYLSGVVYRKRKQDSKAIDFLKSCVLKAPFFWSAWLELSLSIDSLETLTTVVSQLPSTHIMTKIFYVYASHELHQVNSSAYEKLAEAEIIFPNSRYLKTQRALLTYDSRDFDEAESLFENILTNDPYRLDDMDTYSNVLFVLENKSKLGFLAQVASSIDKFRPETCSIIGNYYSLLSEHEKAVTYFKRALQLNRNYLSAWTLMGHEYVELKNTHAAIESYRLAVDVNRKDYRAWYGLGQTYEVLDMHFYALYYFQRATALRPYDQRMWQALGNCYEKIDRPQEAIKSYKRALLGSQTNSSILVRLGNLYEELQDLNSAASMYKQCIKTEETEISPETIKARIWLARWELGKKNYREAELYLSEVLNGDLELEEAKALLRELRSRMEHSYD | binds | binds
3 | B1 |  | binds
4 | Cdc26 (Hcn1) subunit of recombinant S. pombe APC/C (natural protein, UniProt O13916 1-80, looked up, Cdc26 (S. pombe name Hcn1), TPR accessory subunit of the S. pombe anaphase-promoting complex; Subunit within the recombinant S. pombe APC/C used for cryo-EM; source: recombinant S. pombe APC/C) MLRRNPTAIQITAEDVLAYDEEKLRQTLDSESTTEEALQKNEESTRLSPEKKKIIRERRIGITQIFDSSMHPSQGGAAQS | binds | 
